Molecular target: lysine decarboxylase CadA from Vibrio vulnificus (Vibrio vulnificus)
Assay: SEC; Sephacryl S-300 HR column on FPLC, 0.5 mL/min, 50 mM MES/100 mM NaCl pH 6.5; standards IgM 970 kDa, thyroglobulin 669 kDa, ferritin 440 kDa, catalase 232 kDa, aldolase 140 kDa; self-association of the purified enzyme

## lysine decarboxylase CadA from Vibrio vulnificus (from UniProt A0A3Q0L4X5 1-797) (enzyme)
  stoichiometry N: 10

From publication PMC6297170
